Kd, Jurkat-based NFκB reporter gene assay, EC50, comparison of Fc isotypes (Fig. S5) and NFκB-luciferase reporter in hGITR-transfected Jurkat cells, agonism EC50 data for three substances are collected here from paper PMC5384396.

Assay [1] deals with histidine-tagged recombinant FcγRIIIa (158V) (human). Briefly: SPR.
Assay [2] deals with hGITR on hGITR-transfected Jurkat cells (human) (UniProt Q9Y5U5).
Assay [3] has the same target. This is another data set of the same source.

pKd: −log10 of the molar value.

Sequence of hGITR on hGITR-transfected Jurkat cells (human) (Q9Y5U5 26-241): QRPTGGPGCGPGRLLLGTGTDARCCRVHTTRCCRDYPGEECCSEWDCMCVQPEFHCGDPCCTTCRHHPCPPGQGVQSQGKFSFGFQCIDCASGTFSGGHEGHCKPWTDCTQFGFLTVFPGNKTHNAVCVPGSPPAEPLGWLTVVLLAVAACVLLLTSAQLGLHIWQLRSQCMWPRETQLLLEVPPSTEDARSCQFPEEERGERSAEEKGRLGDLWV

IgG1 isotype control antibody: the pKd in assay [1] was 6.76.

In assay [2], “IgG4 Fc-containing GITRL FP (from UniProt Q9UNG2 49-177) (Fc fusion)” registered a Jurkat-based NFκB reporter gene assay, EC50, comparison of Fc isotypes (Fig. S5) of 300 pM.

The substance “hGITRL FP with the human matrilin 1 trimerization domain (from UniProt Q9UNG2 49-177) (Fc fusion)” returned an NFκB-luciferase reporter in hGITR-transfected Jurkat cells, agonism EC50 in assay [3] of 920 pM.
